Article PMC9089689 (ACS Omega, 2022)
Positions count from the first letter of the chain named. Names and notes keep the numbering of the source.

T1: Hup-WT (histone-like DNA binding protein HU) (Helicobacter pylori, UniProt O25506 1-94)
T1 sequence: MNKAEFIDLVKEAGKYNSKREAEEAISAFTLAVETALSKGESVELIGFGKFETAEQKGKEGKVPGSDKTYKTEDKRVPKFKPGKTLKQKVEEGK

B1: Hup-P64A protein (natural protein, Helicobacter pylori, UniProt O25506 1-94, looked up)
chain: T1 sequence with P64A
B2: Helicobacter pylori histone-like DNA binding protein (Hup), wild type (natural protein, UniProt O25506 1-94, looked up)
chain: T1 sequence
B3: hp-DNA (25-base A/T-rich hairpin) (structured_DNA)
DNA: TTTTTTTTTTCGAAGAAAAAAAAAA

Legend:
NMR 1H-15N HSQC = biological target: the molecule itself; experiment: NMR 1H-15N HSQC
SEC = biological target: the molecule itself; experiment: SEC
[1] = biological target: T1, Hup-WT (histone-like DNA binding …); experiment: Tyr fluorescence quenching

Binder	intensity ratio [dimer:monomer] (NMR 1H-15N HSQC)	stoichiometry N (SEC)	Kd [1] [nM]
B1	~1.5	2	
B2		2	
B3			500 ± 50
